Experimental data from IntAct's records for PubMed 24510189.

B1: mRNA-decapping enzyme 1A (Homo sapiens), Q9NPI6 (parent)
chain: MEALSRAGQEMSLAALKQHDPYITSIADLTGQVALYTFCPKANQWEKTDIEGTLFVYRRSASPYHGFTIVNRLNMHNLVEPVNKDLEFQLHEPFLLYRNASLSIYSIWFYDKNDCHRIAKLMADVVEEETRRSQQAARDKQSPSQANGCSDHRPIDILEMLSRAKDEYERNQMGDSNISSPGLQPSTQLSNLGSTETLEEMPSGSQDKSAPSGHKHLTVEELFGTSLPKEQPAVVGLDSEEMERLPGDASQKEPNSFLPFPFEQLGGAPQSETLGVPSAAHHSVQPEITTPVLITPASITQSNEKHAPTYTIPLSPVLSPTLPAEAPTAQVPPSLPRNSTMMQAVKTTPRQRSPLLNQPVPELSHASLIANQSPFRAPLNVTNTAGTSLPSVDLLQKLRLTPQHDQIQTQPLGKGAMVASFSPAAGQLATPESFIEPPSKTAAARVAASASLSNMVLAPLQSMQQNQDPEVFVQPKVLSSAIPVAGAPLVTATTTAVSSVLLAPSVFQQTVTRSSDLERKASSPSPLTIGTPESQRKPSIILSKSQLQDTLIHLIKNDSSFLSTLHEVYLQVLTKNKDNHNL
partner: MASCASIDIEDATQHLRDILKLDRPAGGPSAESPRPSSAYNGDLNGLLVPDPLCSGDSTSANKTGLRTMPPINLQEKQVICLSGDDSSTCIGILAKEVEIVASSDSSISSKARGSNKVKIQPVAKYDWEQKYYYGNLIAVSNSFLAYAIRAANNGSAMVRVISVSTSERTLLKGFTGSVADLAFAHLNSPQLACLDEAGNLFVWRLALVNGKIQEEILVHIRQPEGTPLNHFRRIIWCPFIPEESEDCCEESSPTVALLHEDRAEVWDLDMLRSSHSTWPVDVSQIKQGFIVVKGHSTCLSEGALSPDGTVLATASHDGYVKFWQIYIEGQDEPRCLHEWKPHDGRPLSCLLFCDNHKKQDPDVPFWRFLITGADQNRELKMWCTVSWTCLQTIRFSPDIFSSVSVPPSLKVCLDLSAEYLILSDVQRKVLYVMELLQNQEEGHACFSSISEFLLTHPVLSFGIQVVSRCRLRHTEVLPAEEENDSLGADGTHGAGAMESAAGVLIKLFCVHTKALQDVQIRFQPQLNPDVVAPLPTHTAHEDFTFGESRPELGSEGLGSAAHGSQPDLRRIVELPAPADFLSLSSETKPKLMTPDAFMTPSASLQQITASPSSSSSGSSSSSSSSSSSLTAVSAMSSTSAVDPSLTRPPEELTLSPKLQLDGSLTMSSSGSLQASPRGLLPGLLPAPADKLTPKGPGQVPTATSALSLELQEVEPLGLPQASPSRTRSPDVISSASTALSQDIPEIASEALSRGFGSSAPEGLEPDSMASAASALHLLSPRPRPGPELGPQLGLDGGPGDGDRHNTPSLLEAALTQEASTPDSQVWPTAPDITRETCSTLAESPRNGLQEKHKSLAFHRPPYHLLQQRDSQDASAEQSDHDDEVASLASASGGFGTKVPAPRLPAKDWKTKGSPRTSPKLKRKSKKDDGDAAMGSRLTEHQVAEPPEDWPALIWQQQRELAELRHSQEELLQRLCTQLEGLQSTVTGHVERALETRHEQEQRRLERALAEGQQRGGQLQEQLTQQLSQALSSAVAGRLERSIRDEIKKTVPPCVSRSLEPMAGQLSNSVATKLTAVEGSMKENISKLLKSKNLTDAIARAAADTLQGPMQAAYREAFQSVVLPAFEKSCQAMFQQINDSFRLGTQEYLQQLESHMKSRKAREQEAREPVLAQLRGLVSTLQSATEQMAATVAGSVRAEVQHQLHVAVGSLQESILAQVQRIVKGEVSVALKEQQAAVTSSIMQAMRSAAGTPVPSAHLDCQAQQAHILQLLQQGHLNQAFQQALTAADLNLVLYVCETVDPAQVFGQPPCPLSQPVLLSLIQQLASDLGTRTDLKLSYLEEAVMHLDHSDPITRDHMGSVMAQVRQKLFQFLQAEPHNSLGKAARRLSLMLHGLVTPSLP

Variants of: B1
Conditions: with edc4_human EDC4, Q6P2E9

**Q.** For MEALSRAGQEMALAALKQADPYITSIADLTGQVALYTFCPKANQWEKTDIEGTLFVYRRSASPYHGFTIVNRLNMHNLVEPVNKDLEFQLHEPFLLYRNASLSIYSIWFYDKNDCHRIAKLMADVVEEETRRSQQAARDKQSPSQANGCSDHRPIDILEMLSRAKDEYERNQMGDSNISSPGLQPSTQLSNLGSTETLEEMPSGSQDKSAPSGHKHLTVEELFGTSLPKEQPAVVGLDSEEMERLPGDASQKEPNSFLPFPFEQLGGAPQSETLGVPSAAHHSVQPEITTPVLITPASITQSNEKHAPTYTIPLSPVLSPTLPAEAPTAQVPPSLPRNSTMMQAVKTTPRQRSPLLNQPVPELSHASLIANQSPFRAPLNVTNTAGTSLPSVDLLQKLRLTPQHDQIQTQPLGKGAMVASFSPAAGQLATPESFIEPPSKTAAARVAASASLSNMVLAPLQSMQQNQDPEVFVQPKVLSSAIPVAGAPLVTATTTAVSSVLLAPSVFQQTVTRSSDLERKASSPSPLTIGTPESQRKPSIILSKSQLQDTLIHLIKNDSSFLSTLHEVYLQVLTKNKDNHNL [S12A;H19A], which “effect of a mutation on the interaction” value is on record?
**A.** with no effect

**Q.** MEALSRAGQEMSLAALKQHDPYITSIADLTGQVALYTFCPKANQWEKTDIEGTLFVYRRSASPYHGFTIVNRLGMHNLVEPVNKDLEFQLHEPFLLYRNASLSIYSIWFYDKNDCHRIAKLMADVVEEETRRSQQAARDKQSPSQANGCSDHRPIDILEMLSRAKDEYERNQMGDSNISSPGLQPSTQLSNLGSTETLEEMPSGSQDKSAPSGHKHLTVEELFGTSLPKEQPAVVGLDSEEMERLPGDASQKEPNSFLPFPFEQLGGAPQSETLGVPSAAHHSVQPEITTPVLITPASITQSNEKHAPTYTIPLSPVLSPTLPAEAPTAQVPPSLPRNSTMMQAVKTTPRQRSPLLNQPVPELSHASLIANQSPFRAPLNVTNTAGTSLPSVDLLQKLRLTPQHDQIQTQPLGKGAMVASFSPAAGQLATPESFIEPPSKTAAARVAASASLSNMVLAPLQSMQQNQDPEVFVQPKVLSSAIPVAGAPLVTATTTAVSSVLLAPSVFQQTVTRSSDLERKASSPSPLTIGTPESQRKPSIILSKSQLQDTLIHLIKNDSSFLSTLHEVYLQVLTKNKDNHNL [N74G] was tested. Which “effect of a mutation on the interaction” value did it give?
**A.** with no effect

**Q.** Which “effect of a mutation on the interaction” value does the source give for MEALSRAGQEMSLAALKQHDPYITSIADLTGQVALYTFCPKANQWEKTDIEGTLFVYRRSASPYHGFTIVNGLNMHNLVEPVNKDLEFQLHEPFLLYRNASLSIYSIWFYDKNDCHRIAKLMADVVEEETRRSQQAARDKQSPSQANGCSDHRPIDILEMLSRAKDEYERNQMGDSNISSPGLQPSTQLSNLGSTETLEEMPSGSQDKSAPSGHKHLTVEELFGTSLPKEQPAVVGLDSEEMERLPGDASQKEPNSFLPFPFEQLGGAPQSETLGVPSAAHHSVQPEITTPVLITPASITQSNEKHAPTYTIPLSPVLSPTLPAEAPTAQVPPSLPRNSTMMQAVKTTPRQRSPLLNQPVPELSHASLIANQSPFRAPLNVTNTAGTSLPSVDLLQKLRLTPQHDQIQTQPLGKGAMVASFSPAAGQLATPESFIEPPSKTAAARVAASASLSNMVLAPLQSMQQNQDPEVFVQPKVLSSAIPVAGAPLVTATTTAVSSVLLAPSVFQQTVTRSSDLERKASSPSPLTIGTPESQRKPSIILSKSQLQDTLIHLIKNDSSFLSTLHEVYLQVLTKNKDNHNL [R72G] here?
**A.** with no effect

**Q.** For MEALSRAGQEMSLAALKQADPYITSIADLTGQVALYTFCPKANQWEKTDIEGTLFVYRRSASPYHGFTIVNRLNMHNLVEPVNKDLEFQLHEPFLLYRNASLSIYSIWFYDKNDCHRIAKLMADVVEEETRRSQQAARDKQSPSQANGCSDHRPIDILEMLSRAKDEYERNQMGDSNISSPGLQPSTQLSNLGSTETLEEMPSGSQDKSAPSGHKHLTVEELFGTSLPKEQPAVVGLDSEEMERLPGDASQKEPNSFLPFPFEQLGGAPQSETLGVPSAAHHSVQPEITTPVLITPASITQSNEKHAPTYTIPLSPVLSPTLPAEAPTAQVPPSLPRNSTMMQAVKTTPRQRSPLLNQPVPELSHASLIANQSPFRAPLNVTNTAGTSLPSVDLLQKLRLTPQHDQIQTQPLGKGAMVASFSPAAGQLATPESFIEPPSKTAAARVAASASLSNMVLAPLQSMQQNQDPEVFVQPKVLSSAIPVAGAPLVTATTTAVSSVLLAPSVFQQTVTRSSDLERKASSPSPLTIGTPESQRKPSIILSKSQLQDTLIHLIKNDSSFLSTLHEVYLQVLTKNKDNHNL [H19A], which “effect of a mutation on the interaction” value is on record?
**A.** with no effect

**Q.** How did the “effect of a mutation on the interaction” value turn out when MEALSRAGQEMALAALKAADPYITSIADLTGQVALYTFCPKANQWEKTDIEGTLFVYRRSASPYHGFTIVNRLNMHNLVEPVNKDLEFQLHEPFLLYRNASLSIYSIWFYDKNDCHRIAKLMADVVEEETRRSQQAARDKQSPSQANGCSDHRPIDILEMLSRAKDEYERNQMGDSNISSPGLQPSTQLSNLGSTETLEEMPSGSQDKSAPSGHKHLTVEELFGTSLPKEQPAVVGLDSEEMERLPGDASQKEPNSFLPFPFEQLGGAPQSETLGVPSAAHHSVQPEITTPVLITPASITQSNEKHAPTYTIPLSPVLSPTLPAEAPTAQVPPSLPRNSTMMQAVKTTPRQRSPLLNQPVPELSHASLIANQSPFRAPLNVTNTAGTSLPSVDLLQKLRLTPQHDQIQTQPLGKGAMVASFSPAAGQLATPESFIEPPSKTAAARVAASASLSNMVLAPLQSMQQNQDPEVFVQPKVLSSAIPVAGAPLVTATTTAVSSVLLAPSVFQQTVTRSSDLERKASSPSPLTIGTPESQRKPSIILSKSQLQDTLIHLIKNDSSFLSTLHEVYLQVLTKNKDNHNL [S12A;Q18A;H19A] was run?
**A.** with no effect
